Our source for the β-galactosidase (relative units), β gal; CaM from pTr-CaM and cAMP; CaM from pTr-CaM (nmol/mg dry weigth) values is patent US20170204402A1.

Holding throughout (experiment): cell-based or functional assay
Assay [1] has as its target ACM335-GFP hybrid protein (from plasmid pCm-ACM335-GFP) (Bordetella pertussis).
In assay [2] the target is AC (wild-type, from plasmid pCm-AC, no fused moiety) (Bordetella pertussis) (UniProt J7QLC0).
Assay [3] deals with AC-GFP hybrid protein (wild-type AC fused at its C-terminus to GFP, from plasmid pCm-AC-GFP) (Bordetella pertussis) (UniProt J7QLC0).
Assay [4] concerns the target ACM335-FKBP hybrid protein (from plasmid pCm-ACM335-FKBP) (Bordetella pertussis) (UniProt P62942).
In assay [5] the target is ACM335 (from plasmid pCm-ACM335, no fused moiety) (Bordetella pertussis) (UniProt J7QLC0).
Assay [6] has as its target ACM247-GFP hybrid protein (from plasmid pCm-ACM247-GFP) (Bordetella pertussis) (UniProt J7QLC0).

For “CaMVU8 (VU-8 calmodulin, from plasmid pCaMVU8) (from UniProt P0DP23 2-149)”, the β-galactosidase (relative units) in assay [1] amounted to 6; in assay [2], 6; in assay [3], 5; in assay [4], 6; in assay [5], 7.

For “CaM (from plasmid pTr-CaM, not fused to a moiety of interest) (from UniProt P0DP23 2-149)”, the values for the β gal; CaM from pTr-CaM in assay [1], in assay [3] and in assay [6] were 80 Rel. Units, 106 Rel. Units and 1 Rel. Units, respectively. Moreover, the figures for the cAMP; CaM from pTr-CaM (nmol/mg dry weigth) in assay [3] and in assay [6] were greater than 250 and less than 0.1, respectively.
